The results in this text go back to patent US20230365636A1, “BIOORTHOGONAL REPORTER GENE SYSTEM” (priority 2020, published 2023).

The target of assay [1] is T1, reporter protein DTPA-V5-TMD-mRuby3 (DTPA-R) on Jurkat cells (Homo sapiens, UniProt P80188, C107S/D67E/D97E/I100T/I61A/I75T/K154S/K66P/K70L/K95M/L127F/L56R/L62P/L90R/M71L/N85D/P68L/Q48H/Q69L/R101M/R63P/S119N/S147Q/S88A/T156S/T74Q/V53Q/W99L/Y158L/Y72T).
T1 construct: to Jurkat cells expressing the reporter protein DTPA-V5-TMD-mRuby3 was assessed; expressed in transfected cells; host or cells: Jurkat (human T-cell line), stably modified
The experiment in a line: Competition radioligand binding assay (Y-90 radioligand vs Y-89 charged chelator) on Jurkat cells. Conditions: competition of fixed amount of Y-90 radioligand by dilution series of Y-89 charged chelator, FIG. 14A. The protocol: The binding of different radioligands to cells that express the DTPA-R or Colchi-R was shown in binding assays. To this end, Jurkat or PC3 cells that stably express the respective reporter protein of the invention were cultivated, counted and a defined concentration was incubated together with the radioligand in PBS with 2% BSA for 1 h at 37° C. Subsequently, the cells were washed twice with PBS with 2% BSA and finally in the cell-bound fraction and the supernatant fraction the respective radioactivity was detected. (A) NH2-Bn-CHX-A″-DTPA⋅Y-90 binding was competed with a non-radioactive competitor NH2-Bn-CHX-A″-DTPA⋅Y-89. […] (C) A comparative binding assay with ^18F-Py-Ahx-DTPA and ^18F-Py-Glu-Glu-PEG(4)-Colchicine to Jurkat cells expressing either DTPA-R or Colchi-R proving the orthogonal functionality of the two reporter protein & reporter probe pairs.
For the sensitive and specific detection of cells that are labeled with the reporter gene of the invention, the binding between the Anticalin binding protein and the radioligand is of utmost importance. For this reason, the binding of different radioligands to cells that were stably modified with the reporter genes was studies in vitro (FIG. 14). At first, the binding of the ligand domain for the DTPA-R (NH2-CHX-A″-DTPA) to Jurkat cells expressing the reporter protein DTPA-V5-TMD-mRuby3 was assessed. […]

A further assay deals with DTPA-miRFP703. The experiment in a line: Flow cytometry of lentivirally transduced Jurkat cells stained with Alexa Fluor 488-conjugated SV5-PK1 against the extracellular V5-tag. Target printed as DTPA-miRFP703. In general terms: A flow cytometer gives signals particle by particle.
In assay [2] the target is DTPA-V5-TMD-mRuby3 (human). The experiment in a line: Flow cytometry of lentivirally transduced Jurkat cells stained with Alexa Fluor 488-conjugated SV5-PK1 against the extracellular V5-tag. Target printed as DTPA-mRuby3.
In assay [3] the target is CL31d-V5-CD4TMD (human). Kind of assay: Flow cytometry of lentivirally transduced Jurkat cells stained with Alexa Fluor 488-conjugated SV5-PK1 against the extracellular V5-tag. Target printed as DTPA-TMD.
Assay [4] deals with scFv(muC825)-V5-CD4TMD. The experiment in a line: Flow cytometry of retrovirally transduced Jurkat cells after FACS sorting of the 10% highest expressing cells. Staining with AlexaFluor488-conjugated SV5-PK1. Target printed as muC825-V5-TMD.
Assay [5] deals with CL31d-V5-CD4TMD (human). The experiment in a line: flow cytometry, SV5-PK1-AlexaFluor488 on transduced Jurkat cells; the filing reads it as surface expression level.
Assay [6] deals with scFv(muC825)-V5-CD4TMD. The assay is described as above.
The target of assay [7] is scFv(huC825)-V5-CD4TMD. The assay is described as above.
In another assay the target is DTPA-miRFP720. Kind of assay: Flow cytometry of lentivirally transduced Jurkat cells stained with Alexa Fluor 488-conjugated SV5-PK1 against the extracellular V5-tag. Target printed as DTPA-miRFP720.
The target in assay [8] is CL31d-V5-CD4TMD (human). The experiment in a line: Quantification of the SV5-PK1 western blot signals with LI-COR software. The y axis is fold change [relative]. Background: A western blot detects proteins with antibodies after separation by electrophoresis.
In another assay the target is Colchi-V5-TMD (human). The description is as above.
Assay [9] deals with scFv(huC825)-V5-CD4TMD. Kind of assay: Flow cytometry of retrovirally transduced Jurkat cells after FACS sorting of the 10% highest expressing cells. Staining with AlexaFluor488-conjugated SV5-PK1. Target printed as huC825-V5-TMD.
The target in assay [10] is DTPA-V5-TMD-mRuby3 (human). Kind of assay: Magnetic-activated cell separation with SV5-PK1 and anti-mouse IgG microbeads, read by flow cytometry for mRuby3. Cells: Jurkat DTPA-V5-TMD-mRuby3.
Assay [11] concerns the target Colchi-V5-TMD-mRuby3 (human). Kind of assay: Magnetic-activated cell separation with SV5-PK1 and anti-mouse IgG microbeads, read by flow cytometry for mRuby3. Cells: Jurkat Colchi-V5-TMD-mRuby3.
The target of assay [12] is CL31d-V5-CD4TMD (human). The experiment in a line: Flow cytometry of retrovirally transduced Jurkat cells after FACS sorting of the 10% highest expressing cells. Staining with AlexaFluor488-conjugated SV5-PK1. Target printed as CL31d-V5-TMD.

Chain of CL31d-V5-CD4TMD (human) (chain, as listed by the source): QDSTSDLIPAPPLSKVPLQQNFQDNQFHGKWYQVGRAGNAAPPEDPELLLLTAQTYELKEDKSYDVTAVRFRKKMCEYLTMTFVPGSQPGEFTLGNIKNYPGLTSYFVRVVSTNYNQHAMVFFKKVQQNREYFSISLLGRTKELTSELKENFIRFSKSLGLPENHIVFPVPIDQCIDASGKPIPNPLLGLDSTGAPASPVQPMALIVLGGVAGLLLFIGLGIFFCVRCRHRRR
T1 sequence (P80188 21-197 with the stated changes): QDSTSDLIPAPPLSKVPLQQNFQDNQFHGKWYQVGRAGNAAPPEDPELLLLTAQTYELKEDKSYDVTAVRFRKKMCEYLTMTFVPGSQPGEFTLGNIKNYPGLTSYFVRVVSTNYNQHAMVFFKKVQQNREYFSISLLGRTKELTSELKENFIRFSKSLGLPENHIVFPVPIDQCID

One may read the IC50 as the concentration needed to halve the response being measured. Low readings indicate higher potency, high ones lower potency. Regarding `Nc1ccc(C[C@H](CN(CC(=O)O)[C@H]2CCCC[C@@H]2N(CC(=O)O)CC(=O)O)N(CC(=O)O)CC(=O)O)cc1` [NH2-CHX-A″-DTPA, [(R)-2-amino-3-(4-aminophenyl)propyl]-trans-(S,S)-cyclohexane-1,2-diaminepentaacetic acid], in assay [1], the IC50 turned out to be 1.4 nM. That is a single-digit nanomolar value.

Turning to monoclonal anti-V5-antibody SV5-PK1, the MFI with DTPA-miRFP703 is 2330; in assay [2], 1740; with CL31d-V5-CD4TMD (human) [3] it was 18500; with scFv(muC825)-V5-CD4TMD [4] it was 7400; with DTPA-miRFP720, 2550; with scFv(huC825)-V5-CD4TMD [9], 6200. Moreover, the MFI with CL31d-V5-CD4TMD (human) [12] was determined as 20600. Moreover, the results for the Median Fluorescence Intensity (MFI) with CL31d-V5-CD4TMD (human) [5], with scFv(muC825)-V5-CD4TMD [6] and in the assay with scFv(huC825)-V5-CD4TMD [7] were 6560, 1130 and 1080, respectively. In addition, in the assay with CL31d-V5-CD4TMD (human) [8], the fold increase of the quantified V5 band signal, lane 4 over lane 2 (DTPA-V5-TMD-mRuby3) was 3.7 fold. This compound also showed a fold increase of the quantified V5 band signal, lane 5 over lane 3 (Colchi-V5-TMD-mRuby3) in the assay with Colchi-V5-TMD (human) of 5.4 fold. In addition, the % mRuby3-positive cells in the MACS eluate worked out at 98.5% in assay [10] and 99% in assay [11]. Besides, the % mRuby3-positive cells in the MACS flow through in [10] was determined as 0.8%; in [11] it was 1.5%.
